The source of these data is US9493537 (STC UNM, dated 2016).

Positions of bridges follow the written chain, without caps; N, C: chain ends. Non-standard residues stand in square brackets, D forms with d. *: point of attachment. DOTA = O=C(O)CN1CCN(CC(=O)O)CCN(CC(=O)*)CCN(CC(=O)O)CC1; Nle = CCCC[C@H](N)C(=O)O

Assay [1] deals with T1, melanocortin-1 (MC1) receptor on B16/F1 murine melanoma cells (mouse (B16/F1 murine melanoma cells), UniProt Q01727 1-315).
T1 construct: whole, on cells; Endogenous receptor of the B16/F1 cells, in culture and as flank tumours in C57 mice; also called MCI receptor; MSH receptor
Put plainly: competitive binding on B16/F1 melanoma cells against 125I-Tyr2-NDP-MSH; row head 'MC1R binding affinity (nM)'. As for the experimental part: (§1) The medium was aspirated after the incubation. The cells were rinsed twice with 0.5 mL of ice-cold pH 7.4, 0.2% BSA/0.01 M phosphate buffered saline (PBS) and lysed in 0.5 mL of 1 N NaOH for 5 minutes. The activities associated with cells were measured in a Wallac 1480 automated gamma counter (PerkinElmer, Waltham, Mass.). The $IC50$ value of each peptide was calculated using Prism software (GraphPad Software, La Jolla, Calif.).

For assay [2], the target named is T1, melanocortin-1 (MC1) receptor on B16/F1 …. The assay is described as follows: competitive binding on B16/F1 melanoma cells against 125I-Tyr2-NDP-MSH. As for the experimental part: as §1

T1 sequence (Q01727 whole entry): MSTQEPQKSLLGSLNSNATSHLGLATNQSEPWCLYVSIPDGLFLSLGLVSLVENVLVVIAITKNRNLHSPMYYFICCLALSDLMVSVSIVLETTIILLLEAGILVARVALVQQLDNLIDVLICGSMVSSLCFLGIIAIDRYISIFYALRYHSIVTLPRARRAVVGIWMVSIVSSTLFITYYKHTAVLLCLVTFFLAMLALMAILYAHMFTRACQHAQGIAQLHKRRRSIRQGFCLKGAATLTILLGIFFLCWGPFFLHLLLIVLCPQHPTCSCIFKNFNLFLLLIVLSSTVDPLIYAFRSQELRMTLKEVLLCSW

B1: DOTA-GGNle-CycMSHhex (peptide)
peptide: {DOTA}-GG[Nle]DH[dF]RWK-NH2
modifications: lactam 4-9
SMILES: CCCC[C@H](NC(=O)CNC(=O)CNC(=O)CN1CCN(CC(=O)O)CCN(CC(=O)O)CCN(CC(=O)O)CC1)C(=O)N[C@H]1CC(=O)NCCCC[C@@H](C(N)=O)NC(=O)[C@H](Cc2c[nH]c3ccccc23)NC(=O)[C@H](CCCNC(=N)N)NC(=O)[C@@H](Cc2ccccc2)NC(=O)[C@H](Cc2c[nH]cn2)NC1=O
notes: Synthetic; also called DOTA-GlyGlyNle-CycMSHhex
As usually defined, the IC50 is the concentration that gives 50% inhibition. A high value points to a need for much substance. B1 registered a concentration for half-maximal inhibition (IC50) in assay [1] of 2.1 nM.

B2: DOTA-GENle-CycMSHhex (peptide)
peptide: {DOTA}-GE[Nle]DH[dF]RWK-NH2
modifications: lactam 4-9
SMILES: CCCC[C@H](NC(=O)[C@H](CCC(=O)O)NC(=O)CNC(=O)CN1CCN(CC(=O)O)CCN(CC(=O)O)CCN(CC(=O)O)CC1)C(=O)N[C@H]1CC(=O)NCCCC[C@@H](C(N)=O)NC(=O)[C@H](Cc2c[nH]c3ccccc23)NC(=O)[C@H](CCCNC(=N)N)NC(=O)[C@@H](Cc2ccccc2)NC(=O)[C@H](Cc2c[nH]cn2)NC1=O
notes: Synthetic; also called DOTA-GlyGluNle-CycMSHhex
In the case of B2, the concentration for half-maximal inhibition (IC50) in assay [1] turned out to be 11.5 nM.

B3: DOTA-NleGE-CycMSHhex (peptide)
peptide: {DOTA}-[Nle]GEDH[dF]RWK-NH2
modifications: lactam 4-9
SMILES: CCCC[C@H](NC(=O)CN1CCN(CC(=O)O)CCN(CC(=O)O)CCN(CC(=O)O)CC1)C(=O)NCC(=O)N[C@@H](CCC(=O)O)C(=O)N[C@H]1CC(=O)NCCCC[C@@H](C(N)=O)NC(=O)[C@H](Cc2c[nH]c3ccccc23)NC(=O)[C@H](CCCNC(=N)N)NC(=O)[C@@H](Cc2ccccc2)NC(=O)[C@H](Cc2c[nH]cn2)NC1=O
notes: Synthetic; also called DOTA-NleGlyGlu-CycMSHhex
In the case of B3, in assay [2], the “fold lower receptor binding affinity than DOTA-GGNle-CycMSHhex and DOTA-GENle-CycMSHhex” value is not below 78 fold. This molecule registered a concentration for half-maximal inhibition (IC50) in assay [1] of 873 nM.
